Results as given in patent US20260098102A1 (NATIONAL UNIVERSITY CORPORATION KOBE UNIVERSITY, published 2026).

Experiments:
[1] = biological target: T1, mouse SIRPA variant hmSIRPA_Δ1 (mouse (with human residues), UniProt P97797 35-513); assay: cell-based ELISA on 293α cells expressing FLAG-tagged hmSIRPA_Δ1; Abs 490 normalized to FLAG tag [ii]
T1 construct: FLAG-tagged (pFLAG V5-DEST), on 293α cells
T1 chain: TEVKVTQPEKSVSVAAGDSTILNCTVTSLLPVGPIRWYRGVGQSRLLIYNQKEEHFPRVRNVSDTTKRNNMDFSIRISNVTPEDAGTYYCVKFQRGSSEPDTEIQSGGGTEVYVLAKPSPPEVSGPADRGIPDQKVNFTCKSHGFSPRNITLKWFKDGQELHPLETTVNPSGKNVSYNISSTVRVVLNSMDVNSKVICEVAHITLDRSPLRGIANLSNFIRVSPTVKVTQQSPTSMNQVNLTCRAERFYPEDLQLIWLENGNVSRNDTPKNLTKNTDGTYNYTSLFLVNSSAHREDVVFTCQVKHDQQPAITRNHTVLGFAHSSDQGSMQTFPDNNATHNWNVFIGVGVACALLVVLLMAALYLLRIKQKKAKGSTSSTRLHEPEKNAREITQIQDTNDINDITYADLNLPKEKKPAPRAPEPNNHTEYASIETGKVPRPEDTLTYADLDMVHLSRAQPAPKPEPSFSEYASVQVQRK
Procedure: (§1) After the culture supernatant of 293α cells into which the pFLAG V5-DEST-hmSIRPA_Δ0, Δ1, and Δ2 expression vector prepared in 2)-1-2-2 was introduced and the pFLAG V5-DEST-introduced 293α cells was removed, 50 μL per well of four different D13 humanized anti-human SIRPA antibodies and a chimeric anti-human SIRPA antibody diluted with 5% FBS-containing PBS to a final concentration of 10,000 ng/mL were added to these cells, and the mixture was allowed to stand at 4° C. for one hour. Further, 50 μL per well of an anti-FLAG M2 antibody (SIGMA) diluted with 5% FBS-containing PBS to a final concentration of 10,000 ng/mL was added to a well for detecting expression of each SIRPA construct, and the mixture was allowed to stand at 4° C. for one hour. Thereafter, binding to each construct was evaluated in the same manner as in the evaluation of the binding activity of the human SIRPA. Binding of anti-human SIRPA antibodies to each construct was standardized by expression of the FLAG tag.

[2] = biological target: T2, mouse SIRPA variant hmSIRPA_Δ0 (mouse (with human residues), UniProt P97797 35-513); assay: cell-based ELISA on 293α cells expressing FLAG-tagged hmSIRPA_Δ0; Abs 490 normalized to FLAG tag [i]
T2 construct: FLAG-tagged (pFLAG V5-DEST), on 293α cells
T2 chain: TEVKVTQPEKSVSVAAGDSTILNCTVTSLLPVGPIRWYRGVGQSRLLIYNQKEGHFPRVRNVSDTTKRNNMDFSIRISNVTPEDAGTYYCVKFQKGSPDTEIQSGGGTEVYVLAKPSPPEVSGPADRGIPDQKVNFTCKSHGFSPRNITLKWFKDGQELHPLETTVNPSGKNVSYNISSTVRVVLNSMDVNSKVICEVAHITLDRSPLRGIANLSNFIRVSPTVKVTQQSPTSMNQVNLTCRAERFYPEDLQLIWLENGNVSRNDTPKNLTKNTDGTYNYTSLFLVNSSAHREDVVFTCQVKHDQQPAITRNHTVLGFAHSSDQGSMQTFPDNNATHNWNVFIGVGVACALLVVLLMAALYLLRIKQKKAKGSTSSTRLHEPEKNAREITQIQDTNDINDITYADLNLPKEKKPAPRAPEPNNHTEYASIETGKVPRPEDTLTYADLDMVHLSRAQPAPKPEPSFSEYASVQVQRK
Procedure: as §1

[3] = biological target: T3, cSIRPA_ECD (cynomolgus monkey); assay: SPR Biacore T200, antibody captured on anti-human IgG (Fc), monkey SIRPA_ECD as analyte, 1:1 model
T3 construct: Secreted recombinant protein
T3 chain: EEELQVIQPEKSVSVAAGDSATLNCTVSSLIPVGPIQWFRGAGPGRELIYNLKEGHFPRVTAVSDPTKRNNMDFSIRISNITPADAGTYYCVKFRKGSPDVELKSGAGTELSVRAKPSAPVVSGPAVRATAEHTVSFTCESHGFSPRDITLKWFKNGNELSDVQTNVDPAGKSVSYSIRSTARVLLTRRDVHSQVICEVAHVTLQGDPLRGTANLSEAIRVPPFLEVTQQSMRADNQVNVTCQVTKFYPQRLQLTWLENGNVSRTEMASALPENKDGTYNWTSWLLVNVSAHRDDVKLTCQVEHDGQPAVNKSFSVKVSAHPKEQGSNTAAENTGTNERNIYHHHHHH
Procedure: The dissociation constants of hD13_HIL3, hD13_HIL4, hD13_H2L2, and hD13_H2L3 prepared in Example 7 against human SIRPA_V1_IgV and monkey SIRPA_ECD prepared in Example 1 were measured by a capture method of capturing a humanized antibody as a ligand to an Anti-Human IgG (Fc) antibody immobilized using Human Antibody Capture Kit (GE Healthcare Bioscience Corp.) and measuring an antigen as an analyte, using Biacore T200 (GE Healthcare Bioscience Corp.). HBS-EP+ (GE Healthcare Bioscience Corp.) was used as a running buffer, and CM5 (GE Healthcare Bioscience Corp.) was used as a sensor chip. Onto the chip, 1 μg/mL humanized antibody was added at 10 μL/min for 60 seconds, and then a serially diluted solution (0.5 to 8 μg/mL) of human SIRPA protein or a serially diluted solution (1 to 16 μg/mL) of monkey SIRPA protein was added as an antigen at a flow rate of 30 μL/min for 120 seconds, and subsequently the dissociation phase for 600 seconds was monitored. As a regenerant, 3 M magnesium chloride (GE Healthcare Bioscience Corp.) was added at a flow rate of 20 μL/min for 30 seconds. For data analysis, a binding rate constant (ka), a dissociation rate constant (kd), and a dissociation constant (KD; KD=kd/ka) were calculated using a 1:1 binding model.

Binder	binding result [1]	binding result [2]	Kd [3]
human chimeric anti-SIRPA antibody cD13 (antibody, human IgG4 S228P, kappa, F234A L235A, V domains shown, Human IgG4proFALA heavy chain, human kappa light chain; also called cD13 (IgG4pf); human chimeric antibody D13) VH: EVQLVESGGGLVQPGRSLKLSCLASGFTFSDYGMIWVRQAPGKGLEWVASISSSSSYIYYADTVKGRFTISRENAKNTLFLHMTSLRSEDTALYYCARRYYGFNYPFDYWGQGVMVTVSS VL: DTVLTQSPALAVSLGQRVTISCGASKSVRTYMHWYQQKSGQQPKLLIYSASNLEAGVPSRFSGSGSGTDFTLTIDPVEADDIANYYCQQSNEPPYTFGAGTKLELKR	no binding (tested: 10000 ng/mL)	binds	–
humanized anti-SIRPA antibody hD13_H1L3 (antibody, human IgG4 S228P, kappa, F234A L235A, V domains shown, hH1 heavy chain (IgG4proFALA) and hL3 kappa light chain; also called hD13_HIL3; HIL3 antibody) VH: QVQLVESGGGVVQPGRSLRLSCAASGFTFSDYGMIWVRQAPGKGLEWVASISSSSSYIYYADSVKGRFTISRDNSKNRLYLQMNSLRAEDTAVYYCARRYYGFNYPFDYWGQGTMVTVSS VL: DTQLTQSPSSLSASVGQRVTITCGASKSVRTYMHWYQQKPGKQPKLLIYSASNLEAGVPSRFSGSGSGTDFTLTISSLQPEDFATYYCQQSNEPPYTFGQGTKLEIKR	no binding (tested: 10000 ng/mL)	binds	38.6 nM
humanized anti-SIRPA antibody hD13_H2L3 (antibody, human IgG4 S228P, kappa, F234A L235A, V domains shown, hH2 heavy chain (IgG4proFALA) and hL3 kappa light chain; also called H2L3 antibody) VH: EVQLVESGGGVVQPGRSLRLSCAASGFTFSDYGMIWVRQAPGKGLEWVASISSSSSYIYYADSVKGRFTISRDNSKNTLYLQMNSLRAEDTAVYYCARRYYGFNYPFDYWGQGTMVTVSS VL: DTQLTQSPSSLSASVGQRVTITCGASKSVRTYMHWYQQKPGKQPKLLIYSASNLEAGVPSRFSGSGSGTDFTLTISSLQPEDFATYYCQQSNEPPYTFGQGTKLEIKR	no binding (tested: 10000 ng/mL)	binds	54.2 nM
humanized anti-SIRPA antibody hD13_H2L2 (antibody, human IgG4 S228P, kappa, F234A L235A, V domains shown, hH2 heavy chain (IgG4proFALA) and hL2 kappa light chain; also called H2L2 antibody) VH: EVQLVESGGGVVQPGRSLRLSCAASGFTFSDYGMIWVRQAPGKGLEWVASISSSSSYIYYADSVKGRFTISRDNSKNTLYLQMNSLRAEDTAVYYCARRYYGFNYPFDYWGQGTMVTVSS VL: AIQLTQSPSSLSASVGQRVTITCGASKSVRTYMHWYQQKPGKAPKLLIYSASNLEAGVPSRFSGSGSGTDFTLTISSLQPEDFATYYCQQSNEPPYTFGQGTKLEIKR	no binding (tested: 10000 ng/mL)	binds	162 nM
humanized anti-SIRPA antibody hD13_H1L4 (antibody, human IgG4 S228P, kappa, F234A L235A, V domains shown, hH1 heavy chain (IgG4proFALA) and hL4 kappa light chain; also called hD13_HIL4; hD13_HIL4h) VH: QVQLVESGGGVVQPGRSLRLSCAASGFTFSDYGMIWVRQAPGKGLEWVASISSSSSYIYYADSVKGRFTISRDNSKNRLYLQMNSLRAEDTAVYYCARRYYGFNYPFDYWGQGTMVTVSS VL: DTVLTQSPDSLAVSLGQRATINCGASKSVRTYMHWYQQKPGQQPKLLIYSASNLEAGVPSRFSGSGSGTDFTLTISSLQAEDVAVYYCQQSNEPPYTFGQGTKVEIKR	no binding (tested: 10000 ng/mL)	binds	83.9 nM
